Laboratory results published in patent publication US20090175866A1, “TREATMENT OF B-CELL MALIGNANCIES” (priority 2004, published 2009).

How the values were obtained:
FGFR2 = target: T1, FGFR2 (Homo sapiens, UniProt P21802); experiment: FGF-stimulated proliferation of FDCP-FGFR2 cells (XTT); format: cell-based; settings: up to 10 fold higher concentrations than the FDCP-FGFR3 IC50
T1 construct: was transfected with full length FGFR1 (FDCP-FGFR1), FGFR2 (FDCP-FGFR2), FGFR3 (FDCP-FGFR3); expressed in transfected cells; host or cells: FDCP-1 mouse myeloid progenitor cell line
T1 sequence (P21802 22-821, species assumed): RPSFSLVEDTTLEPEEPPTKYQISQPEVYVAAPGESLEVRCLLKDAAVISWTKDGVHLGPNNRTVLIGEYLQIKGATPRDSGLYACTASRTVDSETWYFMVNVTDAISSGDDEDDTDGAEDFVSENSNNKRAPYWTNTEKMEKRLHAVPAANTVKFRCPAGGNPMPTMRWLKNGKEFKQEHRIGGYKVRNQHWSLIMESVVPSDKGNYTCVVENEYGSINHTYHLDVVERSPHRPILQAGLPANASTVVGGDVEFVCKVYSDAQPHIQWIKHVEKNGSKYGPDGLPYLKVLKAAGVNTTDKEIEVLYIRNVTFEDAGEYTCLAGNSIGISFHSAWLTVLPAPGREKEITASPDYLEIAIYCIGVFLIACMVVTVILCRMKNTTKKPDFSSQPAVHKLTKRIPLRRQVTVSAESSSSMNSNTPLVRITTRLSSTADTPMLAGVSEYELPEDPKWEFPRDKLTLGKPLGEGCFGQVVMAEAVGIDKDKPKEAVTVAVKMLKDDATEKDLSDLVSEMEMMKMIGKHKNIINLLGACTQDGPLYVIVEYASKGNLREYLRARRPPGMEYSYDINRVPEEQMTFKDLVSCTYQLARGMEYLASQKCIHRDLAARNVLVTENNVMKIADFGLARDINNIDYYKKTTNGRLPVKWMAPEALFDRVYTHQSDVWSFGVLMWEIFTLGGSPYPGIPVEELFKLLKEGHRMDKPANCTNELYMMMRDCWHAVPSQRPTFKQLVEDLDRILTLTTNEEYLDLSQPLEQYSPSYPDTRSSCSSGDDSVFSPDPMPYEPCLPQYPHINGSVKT
Source text: FIG. 1D is a graph showing proliferation of FGFR expressing FDCP cells in the presence of increasing concentrations of PRO-001 as determined by XTT analysis. Data are the average of duplicate cultures. The X axis represents concentration of PRO-001 Fab. The Y axis represents % inhibition.
Non-transformed rat chondrocyte cell line expressing PGFR3 in an inducible manner (RCJ-FGFR3) has been described previously (Rauchenberger R. et al. J. Biol. Chem. 2003; 278:38194-205). […]
(§1) Cell viability was assessed by 3-(4,5-dimethylthiazol)-2,5-diphenyl tetrazolium (MTT) or (2,3-bis(2-methoxy-4-nitro-5-sulphophenyl)-5-[(phenylamino) carbonyl]-2H-tetrazolium hydroxide (XTT) dye absorbance where indicated. Cells were seeded in 96-well plates at a density of 20,000 (FDCP-1 cells), 5,000 (B9 cells) or 25,000 cells (MM cell lines) per well in culture medium. Cells were incubated in the absence or presence of one of the following cytokines: 10 ng/ml FGF9 and 5 μg/ml heparin, 1% murine IL-6, 50 ng/ml IGF-1 or 50 ng/ml human IL-6 where indicated and increasing concentrations of PRO-001, control antibody (purified human Fab) or 100 nM PD173074. […]

H929 cells = experiment: Viability of H929 myeloma cells (MTT); format: cell-based, human; settings: 5 μg/ml
Source text: FIG. 2 is a graph showing the viability of human myeloma cell lines in the presence of PRO-001. Viability is reported as the ratio between the optical density (OD) in the presence of FGF±inhibitor and the OD in the absence of FGF.
(§2) Non-transformed rat chondrocyte cell line expressing PGFR3 in an inducible manner (RCJ-FGFR3) has been described previously (Rauchenberger R. et al. J. Biol. Chem. 2003; 278:38194-205). Cells were maintained in α-Minimum Essential Media supplemented with 15% fetal calf serum (FCS), 2 mM L-Glutamine, 100 U/ml penicillin, 100 μg/ml streptomycin, 600 μg/ml G418 (Gibco BRL, Ontario, Canada), 2 μg/ml Tetracyclin (Sigma, Ontario, Canada), and 50 μg/ml HygromycinB (Gibco BRL). […]
as §1

WT FGFR3 = target: T2, WT FGFR3 (Homo sapiens, UniProt P22607); experiment: Ligand-stimulated receptor phosphorylation in RCJ-FGFR3 cells (immunoprecipitation, Western blot); format: cell-based
T2 construct: expressed in transfected cells; host or cells: B9 cells
T2 sequence (P22607 23-806): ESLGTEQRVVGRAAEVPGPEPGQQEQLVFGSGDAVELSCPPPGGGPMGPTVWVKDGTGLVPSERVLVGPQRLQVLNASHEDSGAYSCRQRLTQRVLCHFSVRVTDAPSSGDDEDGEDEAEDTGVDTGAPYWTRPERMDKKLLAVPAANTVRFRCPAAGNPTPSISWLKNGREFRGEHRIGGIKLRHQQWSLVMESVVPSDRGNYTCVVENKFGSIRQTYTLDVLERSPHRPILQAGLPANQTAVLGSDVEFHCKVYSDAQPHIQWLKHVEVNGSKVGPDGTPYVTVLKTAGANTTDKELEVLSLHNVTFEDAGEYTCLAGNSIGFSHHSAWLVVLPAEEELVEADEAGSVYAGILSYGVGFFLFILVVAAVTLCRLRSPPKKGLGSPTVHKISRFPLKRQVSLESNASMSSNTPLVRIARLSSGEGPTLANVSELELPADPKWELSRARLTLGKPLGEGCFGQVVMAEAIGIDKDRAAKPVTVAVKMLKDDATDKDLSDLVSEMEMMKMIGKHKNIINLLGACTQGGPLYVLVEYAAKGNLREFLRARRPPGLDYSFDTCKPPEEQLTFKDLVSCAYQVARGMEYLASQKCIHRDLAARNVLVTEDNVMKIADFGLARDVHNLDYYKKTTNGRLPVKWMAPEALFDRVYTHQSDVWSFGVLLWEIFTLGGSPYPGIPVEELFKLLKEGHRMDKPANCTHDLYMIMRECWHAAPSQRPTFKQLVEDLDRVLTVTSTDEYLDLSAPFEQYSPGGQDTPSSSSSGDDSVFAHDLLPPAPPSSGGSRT
Method: FIG. 1C is a photograph of a Western blot showing immune staining of RCJ-FGFR3 cell lysates. RCJ cells were stimulated with FGF (+) with or without pre-incubation with a Fab. Lane 1—no FGF stimulation and no pre-incubation with a Fab. Lane 2—FGF stimulation, no pre-incubation with a Fab. Lane 3—FGF stimulation and pre incubation with a control (C) antibody. Lane 4—FGF stimulation and pre-incubation with an anti-FGFR3 (001) Fab.
as §2
Cells were lysed in lysis buffer (50 mM Tris/HCl, pH 8.0, 150 mM […], 0.1 mM ZnCl2, 0.5% Nonidet NP-40, 1 mg/ml, complete protease inhibitor mix (Roche Molecular Biochemicals, Mannheim, Germany)), and clarified by centrifugation at 12,000×g for 15 minutes. The lysates were subjected to immunoprecipitation for 16 hours at 4° C. with anti-FGFR3 (C15) and analyzed by 7.5% sodium dodecyl-polyacrylamide gel electrophoresis (SDS-PAGE) and Western blot with anti-phosphotyrosine (4G10 from R&D). […]

B1: PRO-001: human anti-FGFR3 Fab from HuCAL library; VH-CDR3 SEQ ID NO:1, VL-CDR3 SEQ ID NO:10; VH SEQ ID NO:19, VL SEQ ID NO:28 (antibody, V domains shown)
VH: QVQLQQSGPGLVKPSQTLSLTCAISGDSVSSNSAAWNWIRQSPGRGLEWLGRTYYRSKWYNDYAVSVKSRITINPDTSKNQFSLQLNSVTPEDTAVYYCARSYYPDFDYWGQGTLVTVSS
VL: DIELTQPPSVSVAPGQTARISCSGDALGDKYASWYQQKPGQAPVLVIYDDSDRPSGIPERFSGSNSGNTATLTISGTQAEDEADYYCQSYDGPDLWVFGGGTKLTVLGQ
For B1, the “Proliferation of FDCP-1 cells expressing FGFR2” value (FGFR2) was “unaffected”, the “Cell growth of H929 cells in the presence of FGF” value (H929 cells) was “resistant” and the “Downstream JNK phosphorylation” value (WT FGFR3) was “reduction in downstream JNK phosphorylation”. For the same molecule, the “Ligand-stimulated autophosphorylation of FGFR3” value (WT FGFR3; anti-phosphotyrosine immunoblot) was “inhibited”.
